The DeepSol protein solubility set

Assay: soluble on expression in E. coli; label from the status in PepcDB or PDB records

Row | Sequence | soluble on expression in E. coli
1 | MSLGTAVLDLMANGVDMLCWADPFFPDPVLPEHISQAVIKSMENGSASHYTMPIGNPELKEKIALKLQRYNNLTVEAQRNILITPGSDSGLLFAMMPFINNDDEVLIHSPSYPSNFLNVELLGGKPISVELKAENNFQIDIKDFENKITEKTKMVILTNPNNPTGTVLRRESLQAIADFIIAHDLILVVDQAFEDAIFDEIEFISIASLPGMWERTVSVFSFSKGMGLSGFRVGYLVADAQIVDVLFGCTVNVVGATNTSSQAGMIAALDEPSFMGEYTQIFERRRKVVFEMMNAIPGVCMVMPESGFLSWIDISKLGTSTFICDYLLQHAHVMVNSGVPYGQGGEGYIRLVHGCYKDDEKLYAVLTRIQQALMQLAKEGHHHHHH | not soluble
2 | MSLGTSWQIGDVTIPNRVVVAPMAGVTNVAFRMICKAFGAGLVECEMISGQGIHYHNQRTLRMMAVNAQEHPMSIQIFGGTQETLVQAAQFVDQQTAADIIDINMGCPVNKVVNTDAGAKWLLDPQKVHDMVAAVVAAVKKPVTVKMRTGWDDHHIFAVDNALAAQRAGAAAVAMHGRTRKQMYQGQADWQILAEVAQHLTIPFMGNGDVRTPQDAQRMLNEVGADAVMIGRAVMGNPWLLQRINHYLATDELLAEPTPQEKTTIALEHLHKLCVAKGPVEGPRDFRNQVAYYLKGIPHTARTKVAITDATEEAVMHDLLVKFLERMTATIEGHHHHHH | not soluble
3 | MSLGYWGVMGNCFRRLSLFGQPTQAKYEMLCSSDDLETEELTFFLDMTYKDFGVYQNDIISHQKDTETMKTLLGLLPMYKKTKLRHTVMERCLSNCPNHVKDALCVELMKAEKILQTMDVVFMKTLIGEFSMCTENLNQLLNKFATDQSTLSDVEKINSLIEIDGENSKRLLVELDPILHEETGLYQALPNVVTEAPSEKVKSIRVESEGESV | not soluble
4 | MSLHEYELNQDLLAENKRLAEKNREALRESGTVAVNIMGAIGSGKTLLIERTIERIGNEVKIGAMLGDVVSKADYERVRRFGIKAEAISTGKECHLDAHMIYHRLKKFSDCDLLLIENVGNLICPVDFDLGENYRVVMVSVTEGDDVVEKHPEIFRVADLIVINKVALAEAVGADVEKMKADAKLINPRAKIIEMDLKTGKGFEEWIDFLRGILNVHSDSGQNEGGSHHHHHH | soluble
5 | MSLHFLYYCSEPTLDVKIAFCQGFDKQVDVSYIAKHYNMSKSKVDNQFYSVEVGDSTFTVLKRYQNLKPIGSGAQGIVCAAYDAVLDRNVAIKKLSRPFQNQTHAKRAYRELVLMKCVNHKNIISLLNVFTPQKTLEEFQDVYLVMELMDANLCQVIQMELDHERMSYLLYQMLCGIKHLHSAGIIHRDLKPSNIVVKSDCTLKILDFGLARTAGTSFMMTPYVVTRYYRAPEVILGMGYKENVDIWSVGCIMGEMVRHKILFPGRDYIDQWNKVIEQLGTPCPEFMKKLQPTVRNYVENRPKYAGLTFPKLFPDSLFPADSEHNKLKASQARDLLSKMLVIDPAKRISVDDALQHPYINVWYDPAEVEAPPPQIYDKQLDEREHTIEEWKELIYKEVMNSEEKTKNGVVKGQPSPSGAAVNS | soluble
6 | MSLHIVVIGAGIVGASTALELQRDGHRVTLVEPGQPGGPQAASFGNGAWLSPASVVPMSMPGLWKKVPGYLMDPLGPLTIRWTALPALAPWLLRFIAAGATVPKVEATARALKALLSDAPERHTALAAEAGLADLVERKGLLYAYPDRAAFEAEALAWRLRRDNGIVWRELDGPALKAFEPTLHPRYGFGALVEAGAHCVDPGAYVAGLVAFAESRGLTRIEAAATGFDIVGGRLQAVRTAKGSVPCDRAVIAAGIHSRALAAEAGDKVSLASERGYHVVVATPESGPHLPVMPSDGKMANTPTRAGLRASGQVELAAVAAAPNWKRADVLLDHLLNTYPGLPRQVPEARLSRWLGHRPSTPDGVPVIGQASACTDIVHAFGHGHVGLASGPITGRLVADIIAGRPPERDIRPYAAARFRREGHHHHHH | soluble
7 | MSLHKRMKKKLILAAAGAMAVFSLAACSSGSKDIATMKGSTITVDDFYNQIKEQSTSQQAFSQMVIYKVFEEKYGDKVTDKDIQKNFDEAKEQVEAQGGKFSDALKQAGLTEKTFKKQLKQRAAYDAGLKAHLKITDEDLKTAWASFHPEVEAQIIQVASEDDAKAVKKEITDGGDFTKIAKEKSTDTATKKDGGKIKFDSQATTVPAEVKEAAFKLKDGEVSEPIAATNMQTYQTTYYVVKMTKNKAKGNDMKPYEKEIKKIAEETKLADQTFVSKVISDELKAANVKIKDDAFKNALAGYMQTESSSASSEKKESKSSDSKTSDTKTSDSEKATDSSSKTTESSSKEGGSHHHHHH | soluble
8 | MSLHSDILVVGAGPAGLSFAAELAGSGLKVTLIERSPLTVLQNPPYDGREIALTHFSREIMQRLGMWDKIPENEIYPLRDAKVLNGRSDYQLHFPQPTEARGEPADCLGYLISNHNIRRAAYEVVSQLDNVSILTDTAVKEVKTSDNEAQVFLENGDILTARLLLAADSRFSQTRRQLGISSDMHDYSRTMFVCRMKHTLSNQHTAYECFHYGRTIALLPLEKRLTNTVITVDTDKINSVQNLSPEELAASVKEQLKGRLGDMELVSSIHHYPLVGMIAKRFYGKRSALIGDAAVGMHPVTAHGFNLGLSSADILAKLILEAEQRGQDIGAASLLEKYSSKHMLHAHPLYHGTNMMLKLFTNETAPAKLLRGLVLRAGNNFPPLKKLITKQLTGLEHHHHHH | soluble
9 | MSLIASIGELLIDLISVEEGDLKDVRLFEKHPGGAPANVAVGVSRLGVKSSLISKVGNDPFGEYLIEELSKENVDTRGIVKDEKKHTGIVFVQLKGASPSFLLYDDVAYFNMTLNDINWDIVEEAKIVNFGSVILARNPSRETVMKVIKKIKGSSLIAFDVNLRLDLWRGQEEEMIKVLEESIKLADIVKASEEEVLYLENQGVEVKGSMLTAITLGPKGCRLIKNETVVDVPSYNVNPLDTTGAGDAFMAALLVGILKLKGLDLLKLGKFANLVAALSTQKRGAWSTPRKDELLKYKEAREVLAEGHHHHHH | soluble
10 | MSLIDFHFHAPVKEFLDFLGEFGEPAIKYFNAKVEVKGLKETLDYYESFGIKRFVVLPIDSTTFLGRRIPNQVINLDDRIVKFISVDPSKPNADEELKRSIKEFEPVGVKLHPQLQGFHPLDERALKIYEIIDNHGLIVVFHTGTSGIGAGVKSSIRLDYGRPIYFDEIAVRFQNMKIILAHFGWPWTEEAIAIALHKPNVYLDLSGWAPRYIPQVIWSNAKRLSDKLLFGSDFPLIRPERWLEEFKSVNLSQDIKDKILKHNAEKLVKKSEGHHHHHH | not soluble
11 | MSLIDIHSHIVFDVDDGPKSREESKALLAESYRQGVRTIVSTSHRRKGMFETPEEKIAESFLQVREIAKEVADDLVIAYGAEIYYTPDVLDKLGKKRIPTLNDSRYALIEFSMNTPYRDIHSALSKILMLGITPVIAHIERYDALGNNEKRVRELIDMGCYTQVNSSHVLKPKLFGERYKFMKKRAQYFLEQTLVHVIASDMHNLDGRPPHMAEAYDFVTQKYGEAKAQELFIDNPRKIIMDQLIEGGSHHHHHH | soluble
12 | MSLIISISNLSPKSNRSQTKDSQISKWSYFSDCILRSTGFPAEWIEKLCFHKTTTMFDLCYRTEQSLNELVERLKTLEQTCHIPSNARQDWQRIRKLVGKRKKVTDEFIHLMEQKGFDQSLTQEIESYERKRRLQEKNWTKARESFEAELAEKQLFLQEIYKNPRLQEAIFQQSPSMYKNAVVPYVHSSLQKRNTNIKRIERQLISYLQRLCTKNETTSFFGPIQYGVLTSEQQDIEYNFNQKETERRAFMPYWSIKVLAAQMKECDVFFPYLNVKLSYQYTKTGDSIHSPILEKMVKFPKPYADIIKHLTYENQSIEQLAKKLSQPVAWLAKKLRLLEKKRLILIEIPLSITEPDSLNELRSWILKIKDVEHPDLSLWQERLEWLWKVKQAYPYMTLGQKQELFHKLESTFTEWTGEQPRRLGGEIYADRNLLYEECHGPLNNIKIGGSIKHVLKQDVPKWLSICAKHGEQRRKQEQALAQEIFKMMYPNEDSVPFLKFVHDLSNHPDVHTWEKRWQSIKTEIEEAITHEVASNPKSVVHLSLDYQDFDRDMAWLTSPDLMIAKKDDDSYQVILGEIHDTIMVWGWALQFHPEKDRVNEQLVKKIQKSTQHLRMLNMLSSKRFKIVPFEYPGTTIQMNSFSNSPNEKIPLSQLKVTYTKEGLALTLPDHEEVFYTYNGELNTMVHSFFSLPRAVSFSIRTGESTPRLMLGDLVVQRAKWHISKQDVWSKKHTGSSIELFYEAYRFHLKESLPKEGFAKLPGQPKPVYVNFTSYFLIEMLEGLWPDGENCTFSEMLPNLSELWLSKEDQKTHTAEIRLSYFVERSEGHHHHHH | soluble
13 | MSLIITGVDVHVVNLPLTSPFRSSFETKTGETRTVVRVTTDDGHVGWGETMWGSPVARLTEQLSSSLIGKSPFALEEFHATHTMVPFFYGYIGYAALAGLDVACWDLMGKITGRPLTDLIGGRVRDTVPITALITRADAPDAPPADLPVALAEHAAKVVAIGGFTAVKLKGTKDVDGDVKIMRALRAVLPDVELRVDPNAAWSVPESIRAGLRMEELDLEYLEDPCWGIDGMARVREKIRIPLCTNMCVVAFEDFAPAMRLGAVDVIHGDVYKWGGEGHHHHHH | not soluble
14 | MSLIKGKELLGRPVVAVSNGAQVDNVHDVVFDHQGNRVLALLVEEGGWLRAAKAVPFGRVQSIGEKAVMIATPEDVVNTGRDPVLKEALAGKTNLIGMTLLTTDGQTLGKITDVYFDERSGQVEGYEASGGLFADMTNGRTFIPAPQSIQIGKDSAIVPAGVAAAMREQAPGGIRGAFHTAGKSLGGAVQGAADSVRGAYEDTSRSVRENYEQVSANVAEAAREGQQQARAAASDLRSRVQGGAEDLREASAERQKDFVVGKVAGQDVRTDNGVLIVAKGTTIDEGQARFAEQNGALPALLAAAAGGSVREGVRDLLADPSSDAGDVVGRRVQEDVRSSVGSLIAVQGQIVTPEVAERARELGLEERLVAATQAPGLQTPPVPDRAELREQASDLRDNLADGLSNVSQNVSQGANELLGRAKSWLGERREDLEDSLDRQEQEAYQARIRDALGRPVTRAVLTRTDRVILQPGELVTHAALDEARAAGVLGLLLDSVDGGEGHHHHHH | soluble
15 | MSLIKVPCMQITNMHCSGQTVSLAAGDYHATIVTVGAGLAELTFQGCHLVIPHKPEEMPLAHLGKVLIPWPNRIANGCYRYQGQEYQLPINEHSSKAAIHGLLAWRDWQISELTATSVTLTAFLPPSYGYPFMLASQVVYSLNAHTGLSVEIASQNIGTVAAPYGVGIHPYLTCNLTSVDEYLFQLPANQVYAVDEHANPTTLHHVDELDLNFTQAKKIAATKIDHTFKTANDLWEMTITHPQQALSVSLCSDQLWVQVYSGEKLQRQGLAVEPMSCPPNAFNSGIDLLLLESGKPHRLFFNIYGQRKMGHHHHHHSH | not soluble
16 | MSLILENEVIWDPERYVLGNYIQNKINDVFLKTIHSKLSGNILDIGCGDGHYTSLLAGKVKHGQILGIDSSEQMIMHANQQWARTGLSFEVHNIEEFHQPQSFDLVLSFWCLHWTNIHISFPNIFHLLKREGKLYAVMSSFSDHSILQTWKELAKQNLYRDLTKQYISPINEQYFYGVINLLNRLPFKRIKLDLKTCRVHLPHIDYYKNLLLTMPFIKRVPSEITDTLVEDMLKAFQTICDRKYGGELYYETRPIFLEAIKEGHHHHHH | not soluble
17 | MSLIMSEPPQLTTPDDKDVENRKHSSTYSISNLLLEKKESSPSGSSSEDDSASSNDDDQRSPSATSSFIFPPASSSSSSESATSPTQIMAQLMANGGAVDPGLQAYFFLLQSQLNSQSMMNRVTQENVSRALTSFNLLNNLPGALPSLSPMGRLQHSMQLSPNSLNMQKKQSRPTFTGHQIYQLERKFEQTKYLAGADRAQLAQELNMSESQVKVWFQNRRTKWRKKEAADNALVKRGASGDKSPCSLSPFLSAGI | not soluble
18 | MSLIREAQRSELPAILELWLESTTWGHPFIKANYWRDCIPLVRDAYLANAQNWVWEEDGKLLGFVSIMEGRFLAAMFVAPKAVRRGIGKALMQYVQQRHPHLMLEVYQKNQPAINFYQAQGFHIVDCAWQDETQLPTWIMSWPVVQTLEGGSHHHHHH | soluble
